# Data published in the nanobody polyreactivity screen of Harvey et al. (2022).
# Assay: yeast display, Sf9 membrane polyspecificity reagent, FACS + sequencing; frameworks hold sequencing errors
# How it was run: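 Synthetic nanobody libraries on Saccharomyces cerevisiae BJ5465 were galactose-induced for 36–48 hours, stained 1 hour at 4 °C with 10% biotinylated, detergent-solubilized Sf9 membrane reagent and enriched on streptavidin microbeads. FACS then separated cells into low and high (top ~1%) gates by anti-HA (expression) and streptavidin (reagent binding) fluorescence. Genes were colony-PCR amplified, MiSeq 2 × 250 sequenced and CDR-length filtered. A clone's polyreactivity label is that of its gate of origin.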
row,Sequence,polyreactivity (PSR sort gate)
1,QVQLVESGGGLVKAGGILRLICVASGRTFLRYGMGWYRQAPGKERELVAAISIVGNTYYADSVKGRFTISRDNAKNTVYLQMNSLKPEDTAVYYCAAGRRFGRDYWGQGTQVTVSS,high polyreactivity
2,QVQLVESGGGLVKAGGILRLSCAASGSTFWKYAMGWYRQAPGKERELVAAINSGGSTYYADSVKGRFTISRDNAKNTVYLQMNSLKPEDTAVYYCAAVYVDRRKRSYYWGQGTQVTVSS,high polyreactivity
3,QVQLVESGGGLVKAGGRLRLSSAASGSIFASYSIGWYRQAPWKERELVAAITVRGGRTYYADSVKGRFTISRDNAKNTVYLQMNSLKPEDTAVYYCAAVGKNRSWYDYWGQGTQVTVSS,high polyreactivity
4,QVQLVESGGGLVKAGGSLRFSCAASGSIFHPYELGWKTQAPRKESDLVAGISRSGTSTYYADSVKGRFTISRDNAKNTVYLQMNSLKPEDTAVYYCYKVLVGSNRGEYDYWGQGTQVTVSS,low polyreactivity
5,QVQLVESGGGLVKAGGSLRLSCAASGFIFKRNVMGWYRQAPGKETELVARISSRGGSTYYADSVKGRFTISRDNAKNTVYLQMNSLKPEDTEVYYCAADFGTIRVYSGDYWGQGTQVTVSS,high polyreactivity
6,QVQLVESGGGLVKAGGSLRLSCAASGFIFTQNAMGWYRQAPGKERELVAAISGTGGSTYYADSVKGRFTISRDNAKNTVYLQMNSLKPEDTAVYYCAARRRQEHVGRSSYARYDYWGQGTQVTVSS,high polyreactivity
7,QVQLVESGGGLVKAGGSLRLSCAASGFISSSYAMGWYRQAPGKERELVAVITRSGGSTYYADSVKGRFTISRDNAKNTVYLQMNSLKPEDTGVYYCNTDARSKKYIFDFDYWGQGTQVTVSS,high polyreactivity
8,QVQLVESGGGLVKAGGSLRLSCAASGFTIVYYAMGWYIQAPGKERELVAAISATGGRTYYADSVKGRFTISRDNAKNTVYLQMNSLKPEDTAVYYCATRRRVLYGYDYWGQGTQVTVSS,high polyreactivity
9,QVQLVESGGGLVKAGGSLRLSCAASGLTFAINTMGWYRQSRGKERELVAAITGSGGSTYYADSVKGRFTISRDNAKNTVYLQMNSLKPEDSAVYYCAAELLYVQGYAMDYWGQGTQVTVSS,low polyreactivity
10,QVQLVESGGGLVKAGGSLRLSCAASGRIFGYYAMGLDRQAPGQERELFAAITWSGGRTYYADSVKGRFTISRDNAKNTVYLQMKSLKPEDTAVYYCAAKTLGQQRKFDYWGQGTQVTVSS,high polyreactivity
11,QVQLVESGGGLVKAGGSLRLSCAASGRTFLRNAMGWYRPAPGKERELVATITRGGSTYYADSVKGRFTISRDNAKNTVYLQMNSLKPEDTAVYYCAKDITGGFRRPDYGYWGQGTQVTVSS,low polyreactivity
12,QVQLVESGGGLVKAGGSLRLSCAASGRTFSSNAMGWNRQAPGKERELVAAISSSGAGTYYADSVKGRFTISRDNAKNTVYFQMTILKPEDSAVYYCAARANSYHSFTSPYDYWGQGTQVTVSS,low polyreactivity
13,QVQLVESGGGLVKAGGSLRLSCAASGSIFPDNAMGWYRQAPGKERELVAAISEGSTSTYYADSVKGRFTISRDNAKYTVYLQMNSLKPEDTAVYYCAADYDTGYEYWGQGTQVTVSS,low polyreactivity
14,QVQLVESGGGLVKAGGSLRLSCAASGSIFPYNAMGWYRQAPGKERELVATISSGGSTNYADSVKGRFTISRDNAKNTVYLQMNSMKPEDTAVYYCAADVSVFYYAPNYWGDIEYGYWGQGTQVTVSS,low polyreactivity
15,QVQLVESGGGLVKAGGSLRLSCAASGSIIKRYAMGWYRQARGKERELVAAITQSGGRTYYADSVKGRFTISRDNAKNTVYLQMNSLKPEDTAVYYCNAVRWYLYDYWGQGTQVTVSS,high polyreactivity
16,QVQLVESGGGLVKAGGSLRLSCAASGSIITIYAMGWYRQAPGKERDWVATITGGGGSTYYADSVKGRFTISRDNAKNTVYFKMNSLKPEETAVYYCAADSPGWSYTSRSYDYWGQGTQVTVSS,low polyreactivity
17,QVQLVESGGGLVKAGGSLRLSCGASGSIFDFYVMGWYRQAPGKERELVGAISSGGSTYYADSVKGRFTISRDNAKHTVYVQMNSLKPADTAVYYCAAYPEYVSGAWYDYWGQGTQVTVSS,low polyreactivity
18,QVQLVESGGGLVKAGGSLRLSSAASGRILYGNAMGGYRQAPGKERELVAANTRRGGSTYYADSVKGRFTISRDNAKNTVSLQMNSLKPEDTAVYYCAASRYTSYYKDGCYAYYYWGQGTQVTVSS,high polyreactivity
19,QVQLVESGGGLVKEGGSLRLSCAASGNTIRVNAMGWYRQAPGKERELVAAISFSGGRTYYADSVKGRFTISRDNAKNTVYFQMNSLKPEDTGVYYCAALRRYPRPFIYGYWGQVTQVTVSS,low polyreactivity
20,QVQLVESGGGLVKEGGSLRLSCAASGRIFGPYAMGWYRQAPGKERELVAVITNSGSTNYADSVKGRFTISRDNAKNSVYLQMNCLKPEDTAVYYCNRFEGGAYGSNFDYWGQGTQVTVSS,high polyreactivity
21,QVQLVESGGGLVLAGASLRLSCAPSGFIFVRYAMGWYRAAPGKERELVAAISSGGSTKYADSVKGRFTISRDNAKNTVYLQMNSLKPEDTAVYYCAADATPGRGVDYWGQGTQVTVSS,high polyreactivity

row,Sequence,polyreactivity (PSR sort gate)
1,QVQLVESGGGLVLAGGSLRLSCAASGFIFDIYAMGCYRQAPGKERELVASITWDDGSTYYADSVKGRFTISRDNAKNTVYLQMNSLNPEDTAVYYCAADFEAGGYSLDYWGHGTQVTVSS,low polyreactivity
2,QVQLVESGGGLVLAGGSLRLSCAASGFILLYYAMGWYREATGKERELVAAISWTGGRTYYADSVKGRFTISRDNAKNTVYLQMNRLKPEDTAVYYCNTFKFFCRKYGYWGQGTQVTVSS,low polyreactivity
3,QVQLVESGGGLVLAGGSLRLSCAASGIIFYRNAMGWYRQAPGKERELVAAITSSGGRTYYADSVKGRFTISRDNAKNTVYLQMNSLKPEDTAVYYCAATRMYWKIFYGDGDYWGQGTQVTVST,high polyreactivity
4,QVQLVESGGGLVLAGGSLRLSCAASGIIFYYYTMGWYRQAPGKERELVAWSGGNTNYADSVKGRFTISRDNAKNTVYLQMNSLIPEDSAVYYCNALAIWSDDWDQWISYADDYWGQGTQVTVSS,low polyreactivity
5,QVQLVESGGGLVLAGGSLRLSCAASGLIFAVYAMGWYRQAPGKERELVAGISASAASTYYADSVKGRFTISRDNAKNTVYLQMNSLKPEDTAVYYCAAGFYRRGKYDYWGQGTQVTVSS,high polyreactivity
6,QVQLVESGGGLVLAGGSLRLSCAASGRTFGYYTMGWYRQAPGKERELVAGISSAGSTNYADSVKGRFTLSRDYAKNTVYLQMNSLKPEDTAVYYCAARYQFYRYDSTYYYCGQGTQVTVSS,high polyreactivity
7,QVQLVESGGGLVLAGGSLRLSCAASGSIFDDNAMGWYIQAPGKERELVAANTVSTDTTYYADSVKGRFTISRDIAKNTVSLLMNSLKPEDTAVYYCAAEGPGYGPTGDFYWYTYYYWGQGTQVTVSS,low polyreactivity
8,QVQLVESGGGLVLAGGSLRLSCAASGSIFGPYAMGWYRQAPGKERELVAAIRSGGSTNYADSVKGRFTISRDNAKNTVYLQMNSLKPEDNAVYYCAAEYWGYPYDYWGQGTQVTVSS,low polyreactivity
9,QVQLVESGGGLVLAGGSLRLSCAASGSIFPLYAMGWYRQAPGKERELVAAITGTSSTYADSVKGRFTISRDNAKNTVYLQMNSLKPEDTAVYYCARVGWSWPRREKYNYWGQGTQVTVSS,high polyreactivity
10,QVQLVESGGGLVLAGGSLRLSCAASGSTFYAHAMGWYRQARGKERELVAAITSGGSTNYADSVKGRFTISRDNAKNTVNLQINSLKPEDTAVYYCATPVNRERHAEDYWGQGTQVTVSS,low polyreactivity
11,QVQLVESGGGLVLPGGRLRLSCAASGGTFSTYAIASYRQGPGKERELVAAISSRGTSTYYADSVKGRFTISRDNAKNSVYLQMNSLKPEDTAVYYCAAVGVKQFLGGNPFDYWGQGTQVTVSS,high polyreactivity
12,QVQLVESGGGLVMAGGRLRLSCAASGSTFGYYAMGWYRQAPGKERELVAVITTRVGSTYYADSVKGRFTFSRDNAKNTVYLQMNSLKPEDTAVYYCNASGRTRSYSGSFSKHYYWGQGTQVTVSS,high polyreactivity
13,QVQLVESGGGLVMAVGSLRLSCAASGSTFAGNAMGWYRQAPGKERELVAAISIVGSTSYADSVKGRFTISRDNAKITFYLQMNSLKPEDTAVYDCAAEWVTSYLNYYHWGQGTQVTVSS,low polyreactivity
14,QVQLVESGGGLVNAGGSLRLSCAASGITLVVYGMGWYRQAPGKETELVAAMTSGGRTYYADSVTGRFTISRDNAKNTVYLQMNSLKPEDTAVYYCAADRYFRQYGRYYYWGQGTQVTVSS,high polyreactivity
15,QVQLVESGGGLVNAGGSLRLSCAASGRTFRNYAMGWYRQAPGKERELVAANSSGGSTNYADSVKGRFTISRDNAKNTVYLQMNSLKPEDTAVYFCAARQRAYYGPGFDYWGQGTQVTVSS,low polyreactivity
16,QVQLVESGGGLVNAGGSLRLSCAASGSIFKYNVMGWYRQAPGKEREMVAAITSRGTSTYYADSVKGRFTISRDNAKNTVYLQMNSLKPEDTAVYYCAADDNYYTFGYWGQGTQVTVSS,high polyreactivity
17,QVQLVESGGGLVPAGGSLLLSCAASGLTFYVYAMGWYRQAPGKERELVAAISSGGRTYYADSVKGRFTISRDNAKNTVYLQMNSLKPEDTAVYYCAAFRHRNYGYWGQGTQVTVSS,high polyreactivity
18,QVQLVESGGGLVPAGGSLRLSCAASGGTFYTYVMGWSSQAPGKERELGAAIAGSGNTYYADSVKGRFTISRDKAKKTVYLQMNSLKPEDTAVYYCAKVLRMYPSGSWYGYWGQGTQVTVSS,high polyreactivity
19,QVQLVESGGGLVPAGGSLRLSCAASGRIFPQYAMGWYRQAPGKERELVAAISYRGGSTYYADSVKGRFTISRDNAKNTVYSQMNSLKPEDTAVYYCAAKRYNYWGQGTQVTVST,high polyreactivity
20,QVQLVESGGGLVPAGGSLRLSCAASGSIFGRNTMGWYRQAPGKERELVAAISSRGTSTYYADSVKGRFTISRDNAKNTVYLQMNSLKPEDTAVYYSAARVYPYNYWGQGTQVTVSS,high polyreactivity
